According to US12043658B2, “Conjugate comprising an active MMP-9-binding peptide” (Daiichi Sankyo Company, Limited, priority 2017, dated 2024):
Each block holds one molecule with its values, some of them ahead of it.

Legend:
[1] = molecular target: T1, active human MMP-9 enzyme active domain (Homo sapiens, UniProt P14780); experiment: Size exclusion chromatography binding to active hMMP-9(cat)_His6; design: an enzyme active domain (Phe107-Pro449) and a His tag; made in house; host or cells: FreeStyle 293F; settings: 25 μM enzyme, 75 μM inhibitor
T1 sequence (P14780 107-449): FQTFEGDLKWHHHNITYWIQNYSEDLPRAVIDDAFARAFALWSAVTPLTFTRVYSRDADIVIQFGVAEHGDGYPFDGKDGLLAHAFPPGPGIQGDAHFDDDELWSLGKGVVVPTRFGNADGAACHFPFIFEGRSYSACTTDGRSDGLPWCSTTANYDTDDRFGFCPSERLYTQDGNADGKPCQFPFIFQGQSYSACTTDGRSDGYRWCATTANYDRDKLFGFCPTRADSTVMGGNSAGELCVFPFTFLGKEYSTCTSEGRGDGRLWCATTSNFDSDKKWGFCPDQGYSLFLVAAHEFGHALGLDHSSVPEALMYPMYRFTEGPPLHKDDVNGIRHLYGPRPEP
Experimental: (§1) With M91005 and M91011 prepared in (1-2), active hMMP-9(cat)_His6 prepared in (2-1-4), and hMMP-9(cat)_E402Q_His6 prepared in (11-3), the binding activity was evaluated by size exclusion chromatography. 25 μM active hMMP-9(cat)_His6 or hMMP-9(cat)_E402Q_His6 and 75 μM active MMP-9-binding peptide or hTIMP-1 (in-house preparation) were mixed, and reacted at 4° C. for 1 hour. After the reaction, 10 μl of the reaction solution was analyzed by size exclusion chromatography. The chromatographic conditions were as follows.
(§2) Detection: Absorbance (280 nm)
(§3) When only active hMMP-9(cat)_His6 was analyzed, the peak of active hMMP-9(cat)_His6 was detected at a retention time of 7.0 minutes (FIG. 53(A)). When a mixture reaction solution of active hMMP-9(cat)_His6 and hTIMP-1 or active MMP-9-binding peptides M91005 or M91011 was analyzed, the retention time of the peak of active hMMP-9(cat)_His6 was shifted to the high molecular weight side (FIG. 53(A)). […] When only human MMP-9(cat)_E402Q_His6 was analyzed, the peak of hMMP-9(cat)_E402Q_His6 was detected at a retention time of 7.1 minutes (FIG. 53(B)). When a mixed reaction solution of human MMP-9(cat)_E402Q_His6 and hTIMP-1 was analyzed, the retention time of the peak of hMMP-9(cat)_E402Q_His6 was shifted to the high molecular weight side (FIG. 53(B)). […] In contrast, when a mixture reaction solution of hMMP-9(cat)_E402Q_His6 and the active MMP-9-binding peptide M91005 or M91011 was analyzed, the retention time of the peak of the hMMP-9(cat)_E402Q_His6 was not changed (FIG. 53(B)). It should be noted that when only hTIMP-1 or the active MMP-9-binding peptides M91005, M91011 was analyzed, the peak of hTIMP-1 was detected at a retention time of 7.3 minutes, the peak of the active MMP-9-binding peptide M91005 was detected at a retention time of 8.2 minutes, and the peak of the active MMP-9-binding peptide M91011 was detected at a retention time of 8.1 minutes (FIG. 53(C)).

[2] = molecular target: T2, human MMP-9 enzyme active domain E402Q mutant (Homo sapiens, UniProt P14780, E402Q); experiment: Size exclusion chromatography binding to hMMP-9(cat)_E402Q_His6; settings: 25 μM enzyme, 75 μM inhibitor
T2 construct: an enzyme active domain E402Q mutant (Phe107-Pro449, E402Q) and a His tag; made in house; host or cells: FreeStyle 293F
T2 sequence (P14780 107-449 E402Q): as the sequence (P14780 107-449) above, with E296Q counted along it
Experimental: as §1, §2, §3

[3] = molecular target: T3, human MMP-9 (active hMMP-9(cat)_His6) (Homo sapiens, UniProt P14780); experiment: Human MMP-9 inhibitory activity of active MMP-9-binding peptide derivatives (substrate peptide); assay type: biochemical; settings: 0.6 nM active hMMP-9(cat)_His6
T3 construct: an enzyme active domain (Phe107-Pro449) and a His tag; made in house; host or cells: FreeStyle 293F
T3 sequence (P14780 107-449): as the sequence (P14780 107-449) above
Experimental: The substrate peptide MOCAc-KPLGL-A2pr (Dnp)-AR-NH2 (SEQ ID NO: 30 (FIG. 46)) (PEPTIDE […], INC.; 3226-v) was dissolved in water to 1 mM, and diluted with an assay buffer (50 mM Tris-HCl, 200 mM NaCl, 2 mM CaCl2, pH 7.5) to use at a final concentration of 2.5 to 10 μM. Fifty μl each of the active hMMP-9(cat)_His6 diluted with the assay buffer and the active MMP-9-binding peptide were mixed, and reacted at 37° C. for 1 hour. Then, 100 μl of the substrate diluted with the assay buffer was added, and fluorescence signals (excitation 328 nm/emission 393 nm) were measured with Enspire (PerkinElmer, Inc.). The final concentration of active hMMP-9(cat)_His6 was 0.4 nM, and the final concentration of the active MMP-9-binding peptide was 0.5 to 25 nM. For reactions and measurements, a ProteoSave™ SS96F black plate (Sumitomo Bakelite Co., Ltd.) was used.
According to the method described in (4-1), human MMP-9 inhibitory activity of each of the binding peptides was evaluated with 0.6 nM final concentration of active hMMP-9(cat)_His6 and 0.0015 to 100 nM final concentration of each active MMP-9-binding peptide (FIGS. 11(A), 12(A), and 13(A)).

[4] = molecular target: T4, pro human MMP-9 enzyme active domain (Homo sapiens, UniProt P14780); experiment: ELISA binding to immobilized pro human MMP-9 enzyme active domain; settings: 1 to 1,000 nM peptide, S-tag detection
T4 construct: a propeptide (Ala20-Arg106), an enzyme active domain (Phe107-Pro449), a FLAG tag; made in house; host or cells: FreeStyle 293F
T4 sequence (P14780 20-449): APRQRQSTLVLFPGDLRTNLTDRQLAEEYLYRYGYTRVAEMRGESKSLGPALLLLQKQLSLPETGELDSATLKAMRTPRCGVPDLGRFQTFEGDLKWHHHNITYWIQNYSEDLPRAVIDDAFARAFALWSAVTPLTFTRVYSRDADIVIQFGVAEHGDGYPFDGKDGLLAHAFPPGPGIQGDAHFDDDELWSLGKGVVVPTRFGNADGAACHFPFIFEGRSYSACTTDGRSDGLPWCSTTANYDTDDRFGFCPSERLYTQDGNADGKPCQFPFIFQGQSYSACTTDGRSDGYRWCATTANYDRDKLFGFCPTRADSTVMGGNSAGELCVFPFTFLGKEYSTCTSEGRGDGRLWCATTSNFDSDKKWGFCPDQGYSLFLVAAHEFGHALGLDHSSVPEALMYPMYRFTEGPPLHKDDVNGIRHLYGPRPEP
Experimental: (§4) The biotin-labeled pro-hMMP-9(cat)_His6_FLAG_Avi obtained in (2-1-6) or biotin-labeled active hMMP-9(cat)_FLAG_Avi obtained in (2-1-7) was immobilized on a streptavidin coated 96-well plate (Thermo Fisher Scientific). After blocking with 3% BSA, 1 to 1,000 nM of the binding peptides were added, and reacted at room temperature for 1.5 hours. After washing, goat anti-S-Tag HRP conjugated (Bethyl Laboratories, Inc.) was added, and reacted at room temperature for 1 hour. After washing, substrates of ELISA POD substrate A.B.T.S kit (Nacalai Tesque Inc.) were added, and reacted at room temperature. After adding a reaction stop solution, the absorbance at 405 nm was measured with Enspire (PerkinElmer, Inc.), and MMP-9-binding activity of the active MMP-9-binding peptides was evaluated.

[5] = molecular target: T1, active human MMP-9 enzyme active domain; experiment: ELISA binding to immobilized active human MMP-9 enzyme active domain; settings: 1 to 1,000 nM peptide, S-tag detection
Experimental: as §4

Molecule: hTIMP-1: hTIMP-1 (in-house preparation) [reference compound]
binding to active human MMP-9 enzyme active domain (peak shift) [1]: bind to the active human MMP-9 enzyme active domain
binding to human MMP-9 enzyme active domain E402Q mutant (peak shift) [2]: binds to the human MMP-9 enzyme active domain E402Q mutant

human MMP-9 inhibitory activity IC50 compared with parent [3]: equivalent to that of M91002
B1: M91002_G0: C-terminal derivative of M91002: Stag+linker 2 at the N-terminal, no C-terminal addition (protein)
chain: GSGMKETAAAKFERQHMDSPDLGTDDDDKAMAENLYFQGDPQFGLFSKYRTPNCRTGRGPACQMGFQPVCGSDMSTYANECTLCMKIREGGHNIKIIRNGPC
modifications: linker; binder
notes: C-terminal derivative of M91002: Stag+linker 2 at the N-terminal, no C-terminal addition

human MMP-9 inhibitory activity IC50 compared with parent [3]: equivalent to that of M91002
B2: M91002_G2: C-terminal derivative of M91002: Stag+linker 2 at the N-terminal, C-terminal 2-mer Gly-Gly (protein)
chain: GSGMKETAAAKFERQHMDSPDLGTDDDDKAMAENLYFQGDPQFGLFSKYRTPNCRTGRGPACQMGFQPVCGSDMSTYANECTLCMKIREGGHNIKIIRNGPCGG

pro human MMP-9-binding activity [4]: did not bind
active human MMP-9-binding activity (EC50) [5]: did not bind
B3: wild type SPINK2: Serine Protease Inhibitor Kazal-type 2, human, SEQ ID NO: 1 (FIG. 15) (protein, listed as Homo sapiens)
chain: DPQFGLFSKYRTPNCSQYRLPGCPRHFNPVCGSDMSTYANECTLCMKIREGGHNIKIIRNGPC

B4: M91005_D1G-Fc-01: N-terminal derivative Fc conjugate: Stag+linker 1, M91005_D1G, C-terminal 6-mer, G4S linker and human IgG1 Fc (protein)
chain: GSGMKETAAAKFERQHMDSPDLGTDDDDKAMADIGSANSGPQFGLFSKYRTPNCRKRGGPSCQMSYNPVCGSDMSTYANECTLCMKIREGGHNIKIIRNGPCGASAAAGGGGSDKTHTCPPCPAPELLGGPSVFLFPPKPKDTLMISRTPEVTCVVVDVSHEPEVKFNWYVDGVEVHNAKTKPREEQYNSTYRVVSVLTVLHQDWLNGKEYCKVSNKALPAPIEKTISKAKGQPREPQVYTLPPSREEMTKNQVSLTCLVGFYPSDIAVEWESNGQPENNYKTTPPVLDSDGSFFLYSKLTVDKSRWQQNVFSCSVMHEALHNHYTQKSLSLSPGK
human MMP-9 inhibitory activity IC50 compared with parent [3]: M91005-Fc-01 and M91005_D1G-Fc-01 are equivalent

human MMP-9 inhibitory activity IC50 compared with parent [3]: equivalent to that of M91002
B5: M91002_G3: C-terminal derivative of M91002: Stag+linker 2 at the N-terminal, C-terminal 3-mer Gly-Gly-Gly (protein)
chain: GSGMKETAAAKFERQHMDSPDLGTDDDDKAMAENLYFQGDPQFGLFSKYRTPNCRTGRGPACQMGFQPVCGSDMSTYANECTLCMKIREGGHNIKIIRNGPCGGG
